Test results as given in patent US20260209387A1, “SINGLE-DOMAIN ANTIBODY FOR INHIBITION OF NEUTROPHIL ELASTASE ACTIVITY” (UNIVERSITE DE LIEGE, priority 2023, published 2026).

Assays:
[1] = molecular target: T1, proteolytic (elastase) activity of cystic fibrosis patient sputa (Homo sapiens, UniProt P08246); test: Sputum proteolytic activity inhibition, cystic fibrosis sputa; type: biochemical
T1 construct: Sputa from patients with cystic fibrosis, COPD or ciliary diskenisia above 18 years old were collected; from tissue; host or cells: expectorated sputum of patients with cystic fibrosis, COPD or ciliary dyskinesia
T1 sequence (P08246 30-267): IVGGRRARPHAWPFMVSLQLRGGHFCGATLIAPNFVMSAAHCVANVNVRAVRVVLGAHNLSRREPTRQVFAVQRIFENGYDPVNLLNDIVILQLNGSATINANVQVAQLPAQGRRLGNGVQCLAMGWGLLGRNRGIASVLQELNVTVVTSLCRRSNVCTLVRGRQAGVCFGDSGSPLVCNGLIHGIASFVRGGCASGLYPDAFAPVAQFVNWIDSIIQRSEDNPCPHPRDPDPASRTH
Description: (§1) 2.2.2 Evaluation of the proteolytic activity inhibition in CF, COPD and ciliary diskenisia sputa. […] Sputa collection procedures were evaluated by the local ethic committee (comité d'Ethique Hospitalo-Facultaire des Cliniques universitaires Saint-Luc) and approved under the Belgian registration number B4032021000071.
(§2) Sputum proteolytic activity was assessed by following with a spectrophotometer the absorbance at 410 nm of suc-Ala-Ala-Pro-Val-pNA degradation, the chromogenic hNE substrate. Sputa were classified as mucoid, muco-purulent or purulent (Serisier et al., 2009, Respir Res, 10 (1): 63. doi: 10.1186/1465-9921-10-6). According to the experiment, 10 to 20 mg of sputum were weighted in a 96-well plate. ISVDs were then added to the sputum samples and pre-incubated at 37° C. during different periods of time. The hNE substrate was diluted to a concentration of 1 mM in a tris buffer (0.1M tris, 0.5M NaCl, 0.01% Sodium azide (NaN3), pH 7.5) and 50 μl of this solution were added to the wells. The substrate degradation was followed during 50 min. […] Slopes were then calculated from the regression line drawn from the absorbance measurements and were expressed as a percentage of the sputum proteolytic activity without ISVDs.

[2] = Spray-dried powder: concentration before/after centrifugation; type: physicochemical; details: spray-dried powder solubilized and dialysed; 10 000 g ten minutes
Description: (§3) Dry powders for inhalation were formulated with the NbE201 and the NbE201-PEG40. The spray dryer used was the PROCEPT's modular 4M8-Trix.
The integrity of the ISVD within the spray-dried powders was then evaluated after solubilizing the powders into water followed by a dialysis into phosphate buffer (50 mM, pH7). Protein concentration was measured by reading the absorbance at 280 nm before and after centrifugation at 10 000 g for ten minutes in order to detect the presence of insoluble aggregates.

hNE = molecular target: T2, hNE (Homo sapiens, UniProt P08246); test: Spray-dried powder: hNE inhibition after solubilizing; type: biochemical; details: [hNE]:[ISVD] 1:1
T2 construct: purchased Elastin Products Company (EPC)
T2 sequence (P08246 30-247): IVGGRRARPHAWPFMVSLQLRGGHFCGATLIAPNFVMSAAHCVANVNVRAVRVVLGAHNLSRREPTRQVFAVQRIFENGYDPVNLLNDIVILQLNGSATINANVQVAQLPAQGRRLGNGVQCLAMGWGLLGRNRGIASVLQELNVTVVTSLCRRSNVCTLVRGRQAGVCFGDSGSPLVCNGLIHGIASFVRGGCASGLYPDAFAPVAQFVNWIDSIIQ
Description: as §3
The inhibitory activity was also assessed after solubilizing the powders. The inhibitory capacity of the Nbs were assessed in an in vitro assay at a [hNE]:[ISVD] ratio of 1:1. The inhibition capacity of the solubilized powders was compared to the inhibition capacity of their respective controls (eg. untreated NbE201 or NbE201-PEG40). […] The protein concentration used to calculate the hNE: ISVD ratio was the concentration read after centrifugation.

[3] = Physical stress (nebulization, agitation, freeze/thaw): concentration by A280 nm before/after centrifugation; type: physicochemical; details: for Initial concentration percentage after centrifugation: 10 000 g 10 min
Description: A 0.25 mg/ml solution of NbE201, NbE201-PEG10 or NbE201-PEG40 was prepared and divided in order to apply the following conditions: control, 1 or 4 h of agitation with a magnetic bar, nebulization, 5 or 10 freeze/thaw cycles.
2.3.1 Stability towards agitation. 100 μl of a 0.25 mg/ml ISVDs solution were agitated in a 1 ml glass vial with a 2×5 mm magnetic bar (VWR, Radnor, USA) at 200 rpm during 1 or 4 hours.
2.3.2 Stability towards Nebulization. 300 μl of a 0.25 mg/ml ISVDs solution were nebulized with a MeSH nebulizer (InnoSpire Go, Phillips, Amsterdam, The Netherlands).
2.3.3 Stability towards freezing/thawing. 100 μl of a 0.25 mg/ml ISVDs solution underwent 5 or 10 freeze/thaw (F/T) cycles. Freezing was performed in a −20° C. freezer and thawing was performed at RT.
2.3.4 Concentration measurements. Concentrations and UV spectra were measured by spectrophotometry (NanoDrop 2000/2000c spectrophotometer, ThermoFisher). Concentrations were determined based on the absorbance at 280 nm. NbE201 and NbE201-Cter mass extinction coefficients applied to the measurements were 1.888 and 1.716 (mg/mL)^−1 cm^−1 respectively. Regarding the ISVDs exposed to physical stresses, the concentration was read before and after centrifugation at 10 000 g at 4° C. for 10 min.

[4] = molecular target: T3, proteolytic activity of ciliary dyskinesia patient sputum (Homo sapiens, UniProt P08246); test: Sputum proteolytic activity inhibition, ciliary dyskinesia sputum; type: biochemical; details: 10 mg sputum
T3 construct: Sputa from patients with cystic fibrosis, COPD or ciliary diskenisia above 18 years old were collected; from tissue; host or cells: expectorated sputum of patients with cystic fibrosis, COPD or ciliary dyskinesia
T3 sequence (P08246 30-267): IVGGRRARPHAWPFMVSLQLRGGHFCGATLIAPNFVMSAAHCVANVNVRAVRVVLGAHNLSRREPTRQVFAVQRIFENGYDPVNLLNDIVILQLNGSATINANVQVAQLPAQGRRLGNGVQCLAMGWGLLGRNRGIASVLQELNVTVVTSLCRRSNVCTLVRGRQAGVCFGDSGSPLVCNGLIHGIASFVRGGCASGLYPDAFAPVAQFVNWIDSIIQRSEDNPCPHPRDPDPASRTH
Description: as §1, §2

[5] = Aggregates detection by Nanoparticle Tracking Analysis; type: physicochemical; details: after nebulization; for average counted particles per frame (NTA): 0.25 mg/ml
Description: 2.3.5 Aggregates Detection. Protein aggregates were visualized by Nanoparticle Tracking Analysis (NTA) (ZetaView, 220 Twin Laser, Particle Metrix, Ammersee, Germany), a technique used for measuring single particle size and concentration. NbE201, NbE201-PEG10 and NbE201-PEG40 solutions (0.25 mg/ml) were analysed before and after nebulization. 11 positions were analysed for which following parameters were used: • Laser wavelength: 488 nm • Scatter, no fluorescence • Sensitivity: 80 • Shutter: 100

[6] = hNE + Solubilized powder, with aggregates
[7] = hNE + Solubilized powder, without aggregates (after centrifugation)

Molecule	concentration after centrifugation as % of concentration before centrifugation [2]	hNE Inhibition percentage (hNE; hNE + Control sdAb (untreated))	hNE Inhibition percentage (hNE; [6])	hNE Inhibition percentage (hNE; [7])	Initial concentration percentage before centrifugation ([3]; Agitation (1 h))	Initial concentration percentage after centrifugation ([3]; Agitation (1 h))	Initial concentration percentage before centrifugation ([3]; Agitation (4 h))	Initial concentration percentage after centrifugation ([3]; Agitation (4 h))	Initial concentration percentage before centrifugation ([3]; Control)	Initial concentration percentage after centrifugation ([3]; Control)	Initial concentration percentage before centrifugation ([3]; F/T 5x)	Initial concentration percentage after centrifugation ([3]; F/T 5x)	Initial concentration percentage before centrifugation ([3]; F/T 10x)	Initial concentration percentage after centrifugation ([3]; F/T 10x)	Initial concentration percentage before centrifugation ([3]; Nebulization)	Initial concentration percentage after centrifugation ([3]; Nebulization)	inhibitory capacity in ciliary dyskinesia sputum [4]	average counted particles per frame (NTA) [5]	also measured
NbE201-PEG40: NbE201-Cter conjugated via C-terminal cysteine to branched 40 kDa PEG-maleimide (conjugate) VHH: QVQLQESGGGLVQAGGSLRLSCVVPGRTISLYRMGWFRQAPGKEREFVAGINWSGDMTDYVDSVKGRFTISRDNAKNTVYLEMNSLKPEDTAIYYCTADPKLLPLADSSYGYWGQGTQVTVSSSPSTPPTPSPSTPPC	97±2%	70 ± 2%	67 ± 2%	72 ± 1%	99 ± 1%	98 ± 1%	98 ± 1%	99 ± 1%	100 ± 0%	99 ± 1%	97 ± 2%	99 ± 1%	97 ± 2%	97 ± 3%	88 ± 3% (****)	88 ± 3% (****)	No apparent differences in inhibitory capacity	far below that threshold	sputum proteolytic activity inhibition at time 0, compared with NbE201 ([1]; exposure time 0): No significant difference
NbE201: anti-hNE ISVD (VHH/nanobody) from immunized lama, amino acid sequence SEQ ID NO: 4 (protein) VHH: QVQLQESGGGLVQAGGSLRLSCVVPGRTISLYRMGWFRQAPGKEREFVAGINWSGDMTDYVDSVKGRFTISRDNAKNTVYLEMNSLKPEDTAIYYCTADPKLLPLADSSYGYWGQGTQVTVSS	53±3%	76 ± 1%	48 ± 5%	78 ± 2%	93 ± 4%	54 ± 12% (****)	77 ± 6% (**)	27 ± 19% (****)	100 ± 0%	100 ± 0% ^	96 ± 8%	85 ± 10% (*)	103 ± 5%	75 ± 9% (**)	73% ± 3% (***)	31 ± 2% (****)	No apparent differences in inhibitory capacity	228	inhibition of proteolytic activity in sputum samples ex vivo ([1]; cystic fibrosis sputa): able to inhibit the proteolytic activity in sputum samples ex vivo; sputum inhibition capacity over time ([1]; exposure 0 to 24 h): a loss of inhibitory capacity over time was observed; size of counted particles, percentile 10 [5]: 22.3±12 nm; size of counted particles, percentile 50 [5]: 138±8 nm; size of counted particles, percentile 90 [5]: 342.8±26 nm
